According to PMC11012335:

What was measured:
[1] = biological target: Hfq WT (Escherichia coli K-12 MG1655) (UniProt P0A6X3); test: EMSA; conditions: EMSA: 20 mM Tris-HCl pH 7.6, 0.5 M NaCl, 1 mM EDTA, 1% glycerol, 20 min at 25 C, native PAGE in 0.5x TBE at 4 C
[2] = biological target: Hfq WT (Escherichia coli K-12 MG1655) (UniProt P0A6X3); test: competition; conditions: EMSA: 20 mM Tris-HCl pH 7.6, 0.5 M NaCl, 1 mM EDTA, 1% glycerol, 20 min at 25 C; native PAGE in 0.5x TBE at 4 C

With RNA I FL as the substance, how does the binding signal ([1]; 347.5 nM Hfq monomer) read?
Its binding signal is 72.1 % bound.

What about the K half ([1]; Hfq monomer, K1 (first shift)) of the same substance?
The K half was 225 nM.

Which results are given for “GGGAACACAUCAGAUUUCCUGGUGUAACGAAUUUUUUAAGUGCUUCUUGCUUAAGCAAGUUUCAUCCCGACCCCCUCAGGGUCGGGAUUU [DsrA]”?
K half [1]: 122 nM; binding [2]: binds

DsrA was tested. Which K half ([1]; Hfq monomer, K1 (first shift)) did it give?
Its K half is 122 nM.
